Test results: patent US9555076B2, “Neuregulin based methods and compositions for treating cardiovascular diseases” (Zensun (Shanghai) Science & Technology, Co., Ltd., priority 2002, dated 2017)
Several values for one entry are separate records, joined by “and”; a condition that tells them apart may be missing. Equal entries are not always repeated.

Columns and labels:
[1] = test system: phosphorylation of ErbB2 protein, MCF-7 cells; experiment: In vitro determination of NRG-1 activity (ELISA test for kinase receptor activation); assay type: cell-based, human
From the text: Quantity of standard product that can induce 50% maximal reaction is defined as an activity unit (1U). Accordingly, product from different pharmaceuticals and of different batch number can be quantitated with uniform criteria.
HER2/neu gene encodes a trans-membrane protein p185, which is a tyrosine protein kinase. Binding of Neuregulin-1 with ErbB3 or ErbB4 induces heterodimer ErbB3-ErbB2 and ErbB4-ErbB2 formation and activates HER2 encoded tyrosine protein kinase, mediating the transmission of functioning signal of Neuregulin-1. Based on the fact that binding of Neuregulin-1 with its receptors triggers phosphorylation of ErbB2 protein, we establish a rapid, sensitive and high flux method for in vitro quantitatively determining biological activity of Recombinant Neuregulin-1.
150 mM NaCl+50 mM Hepes+1% Triton-X 100+2 mM (sodium orthovanadate)+0.01% (thimerosol). […]
Wash the plate 5 times, dilute HRP enzyme linked mouse anti-phosphorylated tyrosine protein antibody with 1:500 lotion (determined by the product using guide and the using time), add 100 μl into each hole of the plate. […]
Colorimetric analysis on the ELISA reader, determine wave length of 450 nm, reference wave length of 655, record the results. […]

[2] = test system: heart failure in rat caused by ligation of coronary artery; experiment: Plasma renin-angiotensin-aldosterone radioimmunoassay; assay type: in vivo, SD rat
Experimental: Carotid artery phlebotomy was carried out and plasma extracted according to the mandate of the reagent kit, frozen and stored at −20° C. Renin activity (PRA), angiotensin I (AI), angiotensin II (AII) and aldosterone (ALD) content were determined with immunoassay.

[3] = test system: toxic myocarditis caused by Adriamycin in rat; experiment: Hemodynamics index, Adriamycin rat model; assay type: in vivo, SD rat; conditions: rat, Adriamycin model
Experimental: rhNRG-1 β was injected into the tail vein within 24 hours after the first injection of Adriamycin. During the experiment, animal survival was dynamically monitored, heart function indexes (maximal rate of pressure increase within left ventricle, […], maximal rate of pressure decrease within left ventricle, −dp/dt, systolic end pressure of left ventricle LVPmax, diastolic end pressure of left ventricle LVPmin) were monitored at the 5th week. Section was made from the heart tissue and pathological changes examined.
Hemodynamics index such as carotid artery pressure, intra-ventricular pressure. dp/dt was measured with six lead physiology recorder. Major procedure: separate the right carotid artery, ligate its distal end and block its proximal end with arterial clamps, 20 G arteriovenous indwelling needle was inserted into the carotid artery, took out the medal stylet, loosened the artery clamps, push the plastic trocar further into appropriate depth, indwelled for 10 minutes, observed the wave style recorded by the physiology recorder, after it was stable, then recorded the carotid artery pressure and push the trocar further into the left ventricle, kept in place for 15 minutes, after it was stable, then recorded the dp/dt, −dp/dt, LVPmax and LVPmin.

[4] = dose not given (n = 6), iv qd × 10
[5] = 10 μg/kg iv qd × 10 d, (I), listed as rhNRG-1β
[6] = 20 μg/kg iv qd × 10 d, (I), listed as rhNRG-1β
[7] = 40 μg/kg iv qd × 10 d, (I), listed as rhNRG-1β

B1: rhNRG-1 β: Recombinant human neuregulin fragment of 61 amino acid (SEQ ID NO:4), 3 disulfide bonds, expressed in E. coli (protein, listed as Homo sapiens)
chain: SHLVKCAEKEKTFCVNGGECFMVKDLSNPSRYLCKCPNEFTGDRCQNYVMASFYKAEELYQ
modifications: disulfide (positions not given here)
[1]; batch number 200210024
  specific activity: 1.12×10^4 U/mg
[1]; purified recombinant neuregulin from engineered strain
  specific activity: more than 5×10^3 EU/mg
[2]; 5 μg/kg iv qd × 10
  AI: 10.036 ng/mL
  AII: 807.304 pg/mL
  ALD: 1.472 ng/mL
  PRA: 4.032 ng/ml · h
[2]; 10 μg/kg iv qd × 10
  AI: 7.65 ± 1.40 ng/mL and 7.654 ng/mL
  AII: 468.58 ± 165.10 pg/mL and 468.583 pg/mL
  ALD: 1.26 ± 0.38 ng/mL and 1.264 ng/mL
  PRA: 1.075±1.50 ng/ml · h and 1.075 ng/ml · h
[2]; 20 μg/kg iv qd × 10
  AI: 7.40 ± 12.15 ng/mL and 7.400 ng/mL
  AII: 641.47 ± 283.86 pg/mL and 641.47 pg/mL
  ALD: 1.02 ± 0.27 ng/mL and 1.018 ng/mL
  PRA: 1.337±1.09 ng/ml · h and 1.337 ng/ml · h
[2]; [4]
  AI: 10.655 ng/mL
  AII: 1366.38 pg/mL
  ALD: 1.738 ng/mL
  PRA: 3.506 ng/ml · h
[3]; 10 μg/kg iv qd × 10 d, (I)
  +dp/dt: 4875±636 mmHg/s and 4875 mmHg/s
  LVPmax: 145±15.2 mmHg and 145 mmHg
  LVPmin: −24.5 mmHg
  −dp/dt: −3672±884 mmHg/s and −3672 mmHg/s
[3]; [5]
  +dp/dt: 4875±636 mmHg/s
  LVPmax: 145±15.2 mmHg
  −dp/dt: −3672±884 mmHg/s
[3]; 10 μg/kg iv qd × 10 d, (II)
  +dp/dt: 4956 mmHg/s
  LVPmax: 158.2 mmHg
  LVPmin: −22.4 mmHg
  −dp/dt: −3626 mmHg/s
[3]; 20 μg/kg iv qd × 10 d, (I)
  +dp/dt: 6107±418 mmHg/s and 6107 mmHg/s
  LVPmax: 156.1±17.7 mmHg and 156.1 mmHg
  LVPmin: −26.9 mmHg
  −dp/dt: −4323±457 mmHg/s and −4323 mmHg/s
[3]; [6]
  +dp/dt: 6107±418 mmHg/s
  LVPmax: 156.1±17.7 mmHg
  −dp/dt: −4323±457 mmHg/s
[3]; 20 μg/kg iv qd × 10 d, (II)
  +dp/dt: 5833 mmHg/s
  LVPmax: 157.7 mmHg
  LVPmin: −26.6 mmHg
  −dp/dt: −4345 mmHg/s
[3]; 40 μg/kg iv qd × 10 d, (I)
  +dp/dt: 5954±689 mmHg/s and 5954 mmHg/s
  LVPmax: 165.7±22.7 mmHg and 165.7 mmHg
  LVPmin: −27.4 mmHg
  −dp/dt: −4794±954 mmHg/s and −4794 mmHg/s
[3]; [7]
  +dp/dt: 5954±689 mmHg/s
  LVPmax: 165.7±22.7 mmHg
  −dp/dt: −4794±954 mmHg/s
[3]; 40 μg/kg iv qd × 10 d, (II)
  +dp/dt: 6041 mmHg/s
  LVPmax: 166.3 mmHg
  LVPmin: −22.2 mmHg
  −dp/dt: −4529 mmHg/s
